According to patent US20020002269A1, “ARTEMIN, A NEUROTROPHIC FACTOR” (priority 1998, published 2002):

Legend:
[1] = molecular target: recombinant neurturin (human mature amino acid sequence) (human); test: plate binding assay: ligand coated, soluble receptor body titrated, anti-human Fc-HRP, A450; apparent Kd
[2] = tested on: SH-SY5Y neuroblastoma cell line; test: Differentiation of SH-SY5Y neuroblastoma cells; type: cell-based; conditions: 10 μM, three days after factor addition, FIG. 8B
Procedure: In one experiment, cells from the SH-SY5Y neuroblastoma cell line were plated at 2×10^5 cells/ml/well in 12-well tissue culture plates. After one day in culture cells were either left untreated (Cn) or stimulated with 50 ng/ml artemin (ART) or 10 μM retinoic acid (RA), a known inducer of differentiation of SH-SYSY cells. Three days after factor addition, differentiation was assessed and cells were photographed.

[3] = molecular target: recombinant GDNF (human mature amino acid sequence) (human); test: plate binding assay: ligand coated, soluble receptor body titrated, anti-human Fc-HRP, A450; apparent Kd
[4] = molecular target: recombinant human artemin protein (human); test: as above
[5] = tested on: nodose ganglion (NG) neurons; test: Survival of cultured nodose ganglion neurons; type: cell-based, rat; conditions: FIG. 7D
Procedure: (§1) Each GDNF ligand family member consisted of the human mature amino acid sequence and was produced by standard recombinant DNA methods. Recombinant GDNF, neurturin and persephin were obtained from Genentech while recombinant artemin was produced as described in Example 3.
(§2) The cultures were performed using standard methods described elsewhere (Kotzbauer et al., Neuron 12:763-773, 1994; Kotzbauer et al., Nature 384:467-470, 1996; Milbrandt et al., Neuron 20:245-253, 1998). In brief, for SCG neurons, after dissection and dissociation, neurons were plated on collagen-coated 24-well tissue culture plates and maintained in NGF-containing medium (AM50) for 5 days, after which they were either kept in AM50 or switched to medium containing neutralizing anti-NGF antibodies plus GDNF, neurturin, persephin, artemin, (50 ng/ml where not noted otherwise), or no growth factors. Cultures were maintained for 3 days, after which they were fixed in 4% paraformaldehyde and stained with toluidine blue, and surviving neurons were counted. For nodose ganglion and dorsal root ganglion neuron cultures, dissociated neurons were plated directly into NGF (for dorsal root ganglia), or BDNF (for nodose ganglia, 100 ng/ml) or one of the GDNF ligands in serum-containing medium (AM50 with anti-NGF antibodies), and cells surviving after 3 days in culture were counted as above. Trigeminal ganglia were dissected, dissociated, and plated directly into medium containing NGF or the indicated GDNF ligands, and the number of surviving cells was assessed after 3 days in vitro. For all culture systems, 2-3 independent experiments were performed.

GFRα2-Fc = test: Direct binding of soluble GFRα2-Fc receptor body to plate-coated ligand; conditions: ligand coated at 325 ng/ml, absence of RET, FIG. 9D
Procedure: To investigate which if any of the known coreceptor(s) artemin can utilize to activate RET, its ability to directly bind to soluble Fc-fusion forms of GFRα1, GFRα2, or GFRα3 was assessed. GFRα1-Fc, GFRα2-Fc and GFRα3-Fc fusion proteins were obtained from R&D Systems. Binding assays were performed similarly to assays previously described (Sanicola et al., Proc. Natl. Acad. Sci., USA 94:6238-6243, 1997). Recombinant GDNF, neurturin, artemin, persephin, or purified bovine serum albumin (BSA; Pierce) were coated to Nunc-Immuno MaxiSorp microtiter plates at 325 ng/ml in TBS (10 mM Tris-HCl pH 7.5, 150 mM NaCl) for 1 hour at 25° C. Plates were washed (3× in TBS/0.03% Tween-20), and then blocked (blocking solution: TBS/1% BSA) for 1 hr at 25° C. Receptor bodies diluted in blocking solution were added and incubated for 2 hr at 25° C., washed 5X, then incubated with 1:10,000 dilution of HRP-conjugated anti-human Fc antibodies in blocking solution (Jackson Immunoresearch) for 45 minutes at 25° C. […] The reaction was stopped by adding an equal volume of 0.5M H2SO4, and color was measured in a plate reader at 450 nm. Non-specific binding of receptor bodies to the plates was measured in BSA coated wells, and this binding was subtracted from all other measurements.

[6] = tested on: trigeminal ganglion (TG) neurons; test: Survival of cultured trigeminal ganglion neurons; type: cell-based, rat; conditions: 50 ng/ml, 3 days in vitro, FIG. 7C
Procedure: as §1, §2

GFRα1-Fc = test: Direct binding of soluble GFRα1-Fc receptor body to plate-coated ligand; conditions: ligand coated at 325 ng/ml, absence of RET, FIG. 9C
Procedure: To investigate which if any of the known coreceptor(s) artemin can utilize to activate RET, its ability to directly bind to soluble Fc-fusion forms of GFRα1, GFRα2, or GFRα3 was assessed. GFRα1-Fc, GFRα2-Fc and GFRα3-Fc fusion proteins were obtained from R&D Systems. Binding assays were performed similarly to assays previously described (Sanicola et al., Proc. Natl. Acad. Sci., USA 94:6238-6243, 1997). Recombinant GDNF, neurturin, artemin, persephin, or purified bovine serum albumin (BSA; Pierce) were coated to Nunc-Immuno MaxiSorp microtiter plates at 325 ng/ml in TBS (10 mM Tris-HCl pH 7.5, 150 mM NaCl) for 1 hour at 25° C. Plates were washed (3× in TBS/0.03% Tween-20), and then blocked (blocking solution: TBS/1% BSA) for 1 hr at 25° C. Receptor bodies diluted in blocking solution were added and incubated for 2 hr at 25° C., washed 5X, then incubated with 1:10,000 dilution of HRP-conjugated anti-human Fc antibodies in blocking solution (Jackson Immunoresearch) for 45 minutes at 25° C. Finally, wells were washed 5× and the presence of HRP was assayed by addition of the chromogenic substrate 3,3, 5,5-tetramethylbenzidine for 5 min. The reaction was stopped by adding an equal volume of 0.5M H2SO4, and color was measured in a plate reader at 450 nm. Non-specific binding of receptor bodies to the plates was measured in BSA coated wells, and this binding was subtracted from all other measurements.

[7] = tested on: dorsal root ganglion (DRG) neurons; test: Survival of cultured dorsal root ganglion neurons; type: cell-based, rat; conditions: 50 ng/ml, 3 days in culture, FIG. 7A
Procedure: as §1, §2

[8] = tested on: CHP134 neuroblastoma cell line; test: Responsiveness of a neuroblastoma cell line that does not express RET (CHP134); type: cell-based; conditions: data not shown
[9] = tested on: CHP126 neuroblastoma cell line; test: Responsiveness of a neuroblastoma cell line that does not express RET (CHP126); type: cell-based; conditions: data not shown
[10] = tested on: SAN neuroblastoma cell line; test: Responsiveness of a neuroblastoma cell line that does not express RET (SAN); type: cell-based; conditions: data not shown
[11] = tested on: NBL-S neuroblastoma cell line; test: BrdU cell proliferation assay in NBL-S neuroblastoma cells; type: cell-based; conditions: 50 ng/mL, 30 hrs after factor addition, FIG. 8D
Procedure: In another experiment, the ability of artemin to induce proliferation of the NBL-S neuroblastoma cell line was examined. NBL-S cells were plated at 5×10^4 cells/well on 48-well plates in standard medium, either without treatment or in the presence of 50 ng/mL of GDNF, artemin, or persephin. Actively dividing cells undergoing DNA synthesis 30 hrs after factor addition were detected using the BrdU (colorimetric) cell proliferation assay kit according to the manufacturer's instructions (Boehringer-Mannheim) and the data are shown in FIG. 8D.

Molecule: GFRα2-Fc fusion protein
- Kd [1]: 3 nM

Molecule: CC1=C(/C=C/C(C)=C/C=C/C(C)=C/C(=O)O)C(C)(C)CCC1 [retinoic acid, all-trans retinoic acid, reference compound]
- differentiation (neurite outgrowth, neuronal morphology) of SH-SY5Y cells [2]: induced strong differentiation responses

Molecule: GFRα1-Fc fusion protein
- Kd [1]: 3 nM
- Kd [3]: 3 nM

Molecule: GFRα3-Fc fusion protein
- Kd [4]: 3 nM

B1: neurturin: recombinant human mature neurturin obtained from Genentech (protein, UniProt Q99748 96-197, looked up)
Neurturin: ARLGARPCGLRELEVRVSELGLGYASDETVLFRYCAGACEAAARVYDLGLRRLRQRRRLRRERVRAQPCCRPTAYEDEVSFLDAHSRYHTVHELSARECACV
- survival of NG neurons ([5]; 50 ng/ml, 3 days in culture): supported similar numbers of NG neurons
- survival promotion of NG neurons compared with BDNF ([5]; GDNF family ligands 50 ng/ml, BDNF 100 ng/ml): equal or greater survival promotion than BDNF
- direct binding of GFRα2-Fc (GFRα2-Fc): bound to neurturin
- survival of TG sensory neurons [6]: supported the survival of a subset of sensory neurons
- direct binding of GFRα1-Fc (GFRα1-Fc): able to bind to both GDNF and neurturin with similar affinity
- survival of DRG sensory neurons [7]: supported the survival of a subset of sensory neurons
- response of CHP134 cells [8]: did not respond
- response of CHP126 cells [9]: did not respond
- response of SAN cells [10]: did not respond

B2: persephin: recombinant human mature persephin obtained from Genentech (protein, UniProt O60542 22-156, looked up)
Persephin: WGPDARGVPVADGEFSSEQVAKAGGTWLGTHRPLARLRRALSGPCQLWSLTLSVAELGLGYASEEKVIFRYCAGSCPRGARTQHGLALARLQGQGRAHGGPCCRPTRYTDVAFLDDRHRWQRLPQLSAAACGCGG
- proliferation of NBL-S cells (BrdU incorporation) [11]: did not
- direct binding of GFRα1-Fc (GFRα1-Fc): not to persephin or artemin
